This note sets out measurements from patent US20120180150A1 (published 2012).

This assay concerns the target T1, mouse IP3R1 full length with C-terminal GFP (mouse, UniProt P11881 1-2749).
T1 construct: also called IP3R1-GFP; IP3R-GFP protein; not shown: C-terminal GFP of the pEGFP-N1 vector, with any linker from the cloning site
Put plainly: HA-matrix co-immunoprecipitation from HEK 293 cells, anti-GFP Western blot. The method, then:
Into HEK 293 cells, a full length IP3R1-GFP expression plasmid and each of the KRAP full length, the deletion mutants, or the point-mutant expression plasmids were introduced together with lipofectamine LTX (Invitrogen), respectively, and the resulting cells were incubated for 24 hours. They were then homogenized in an extracting buffer (50 mM Tris-HCl, pH7.5, 140 mM NaCl, 0.5% NP40, 0.25M NDSB-201 (Calbiochem), and protease inhibitors (Complete EDTA-free, Roche)), and the homogenized mixture was centrifuged at 15,000 rpm for 30 minutes. The resulting supernatant was then subjected to immunoprecipitation with HA matrix (Roche) to precipitate the IP3R-GFP protein binding to the KRAP protein, and the precipitated IP3R-GFP protein was detected by Western blots using a rabbit polyclonal antibody (Clonetech) as an anti-GFP antibody. In the experiment using HCT 116 cells, the presence or absence of co-precipitation of the endogenous IP3R protein was investigated without transfection of the IP3R-GFP protein using a mouse monoclonal antibody (BD Transduction Laboratory) as an anti-IP3R3 antibody.
(A western blot detects proteins with antibodies after separation by electrophoresis.)

T1 sequence (P11881 whole entry S1044R/E1045K): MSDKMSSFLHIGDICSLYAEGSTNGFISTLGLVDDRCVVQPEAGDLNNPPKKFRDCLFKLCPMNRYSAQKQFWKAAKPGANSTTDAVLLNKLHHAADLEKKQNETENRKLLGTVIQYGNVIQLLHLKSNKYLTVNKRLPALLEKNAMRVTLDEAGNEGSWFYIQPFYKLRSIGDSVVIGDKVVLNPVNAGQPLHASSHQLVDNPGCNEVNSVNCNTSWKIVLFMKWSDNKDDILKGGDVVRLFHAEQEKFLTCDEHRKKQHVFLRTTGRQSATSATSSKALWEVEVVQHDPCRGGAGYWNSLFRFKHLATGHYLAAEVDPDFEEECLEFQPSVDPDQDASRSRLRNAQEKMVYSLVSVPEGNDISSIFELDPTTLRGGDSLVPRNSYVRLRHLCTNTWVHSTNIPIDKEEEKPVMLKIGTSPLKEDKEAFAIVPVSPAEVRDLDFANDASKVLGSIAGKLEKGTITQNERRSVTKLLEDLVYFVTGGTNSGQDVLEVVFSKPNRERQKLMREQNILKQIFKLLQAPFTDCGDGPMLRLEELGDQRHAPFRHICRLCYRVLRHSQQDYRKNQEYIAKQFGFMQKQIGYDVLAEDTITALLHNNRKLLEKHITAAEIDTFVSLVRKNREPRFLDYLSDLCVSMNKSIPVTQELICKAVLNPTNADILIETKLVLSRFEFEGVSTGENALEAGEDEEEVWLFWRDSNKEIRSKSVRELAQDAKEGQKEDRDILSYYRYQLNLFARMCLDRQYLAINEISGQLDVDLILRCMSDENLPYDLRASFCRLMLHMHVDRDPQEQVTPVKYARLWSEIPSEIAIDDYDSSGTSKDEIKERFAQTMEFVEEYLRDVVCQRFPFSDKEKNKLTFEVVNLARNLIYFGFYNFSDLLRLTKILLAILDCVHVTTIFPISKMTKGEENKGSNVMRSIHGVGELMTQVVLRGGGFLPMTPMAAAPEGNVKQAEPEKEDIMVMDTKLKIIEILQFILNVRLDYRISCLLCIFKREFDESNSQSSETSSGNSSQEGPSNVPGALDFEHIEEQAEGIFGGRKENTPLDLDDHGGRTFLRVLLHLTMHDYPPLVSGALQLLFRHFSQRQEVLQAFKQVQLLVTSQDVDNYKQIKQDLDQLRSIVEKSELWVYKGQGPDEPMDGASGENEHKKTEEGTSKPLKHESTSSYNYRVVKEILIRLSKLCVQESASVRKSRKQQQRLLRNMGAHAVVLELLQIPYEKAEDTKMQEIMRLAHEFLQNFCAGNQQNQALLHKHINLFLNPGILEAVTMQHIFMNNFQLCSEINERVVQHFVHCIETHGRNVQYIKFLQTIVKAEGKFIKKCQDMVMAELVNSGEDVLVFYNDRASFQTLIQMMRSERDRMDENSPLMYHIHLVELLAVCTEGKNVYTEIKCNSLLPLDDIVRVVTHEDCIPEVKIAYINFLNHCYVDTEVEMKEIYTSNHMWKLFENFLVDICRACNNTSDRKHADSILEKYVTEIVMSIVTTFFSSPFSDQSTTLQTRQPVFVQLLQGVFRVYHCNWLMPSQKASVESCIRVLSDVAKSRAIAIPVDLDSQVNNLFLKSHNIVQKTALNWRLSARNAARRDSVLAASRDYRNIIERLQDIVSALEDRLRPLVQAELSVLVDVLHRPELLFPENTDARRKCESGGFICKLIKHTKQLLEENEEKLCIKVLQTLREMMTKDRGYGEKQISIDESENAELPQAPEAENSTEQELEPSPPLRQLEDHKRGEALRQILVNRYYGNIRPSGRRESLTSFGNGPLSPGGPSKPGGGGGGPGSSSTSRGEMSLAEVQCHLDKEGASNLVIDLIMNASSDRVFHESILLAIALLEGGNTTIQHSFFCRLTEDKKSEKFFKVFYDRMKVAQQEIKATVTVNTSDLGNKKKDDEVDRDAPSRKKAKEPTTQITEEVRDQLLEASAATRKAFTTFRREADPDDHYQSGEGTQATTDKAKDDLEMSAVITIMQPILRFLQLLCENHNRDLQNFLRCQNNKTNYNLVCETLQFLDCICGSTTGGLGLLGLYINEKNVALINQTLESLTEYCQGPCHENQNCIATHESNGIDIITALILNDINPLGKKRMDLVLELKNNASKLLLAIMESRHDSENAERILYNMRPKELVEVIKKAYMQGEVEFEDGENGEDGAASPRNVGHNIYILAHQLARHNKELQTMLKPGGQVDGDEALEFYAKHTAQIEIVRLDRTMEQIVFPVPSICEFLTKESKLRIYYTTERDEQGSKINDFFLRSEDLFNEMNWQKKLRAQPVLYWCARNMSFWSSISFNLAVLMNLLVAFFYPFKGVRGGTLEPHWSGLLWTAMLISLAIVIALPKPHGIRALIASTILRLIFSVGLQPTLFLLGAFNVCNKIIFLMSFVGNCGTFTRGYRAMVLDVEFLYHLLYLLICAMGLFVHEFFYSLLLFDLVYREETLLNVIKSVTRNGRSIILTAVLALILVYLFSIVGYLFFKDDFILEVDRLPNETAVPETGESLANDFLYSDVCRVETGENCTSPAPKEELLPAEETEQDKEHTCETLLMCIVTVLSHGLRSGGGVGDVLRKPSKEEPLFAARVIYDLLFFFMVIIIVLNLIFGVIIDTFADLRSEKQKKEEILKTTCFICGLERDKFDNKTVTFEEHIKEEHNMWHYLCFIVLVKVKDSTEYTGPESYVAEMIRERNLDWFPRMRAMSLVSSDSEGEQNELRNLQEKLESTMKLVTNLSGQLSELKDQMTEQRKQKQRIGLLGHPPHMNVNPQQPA

B1: mouse KRAP deletion mutant composed of the coiled-coil region only (988-1252), N-terminal HA tag (other)
chain: HMTEEDRYEVDQLQGLRNSVRMELQDLEMQLEERLLGLDEQLRAVRVPSPFRPSALPGMCGSRSVDNLSCPSPLNVMEPVTELMREQSYLKSELGLGLGDMAYEIPPGESSESVFSQATSESSSVCSSPSHTNRRSRGLPGSKPRARLVARKKIFRASVALTPTAPSRTGSVQTPPDLESSEEAGGAEEASPVVGLASHVEEEPEDLSLMPAAEEMHRNVEQDELQQVIREIKESIVGEIRREIVSGLLAAVASSKAPGPKQDSH
notes: not shown: N-terminal HA tag of the pCMV-HA vector
For B1, the binding result is on record as “no binding”.
